Several values for one entry are separate records, joined by “and”; a condition that tells them apart may be missing. Equal entries are not always repeated.
Legend:
[1] = Luminescence activity assay of purified Gaussia luciferase mutants on coelenterazine derivative ZS2; type: biochemical; design: key to Activity of mutant relative to wild-type Gaussia luciferase without the signal peptide: ratio of mutant luminescence intensity to wild-type Gaussia luciferase; conditions: for measured value, ZS-2: purified combinatorial mutant, substrate coelenterazine derivative ZS2; for ratios of catalytic activities on ZS2 relative to ZS26: substrate specificity, FIG. 10, in words; for Activity of mutant relative to wild-type Gaussia luciferase without the signal peptide: Substrate ZS2 (Table 16); for Measured luminescence intensity (ZS2): purified luciferase 1 μg/mL, 10 μL, 90 μL substrate ZS2 100 μM; for Ratio of luminescence intensities of advantageous mutant to wild-type Gaussia luciferase without signal peptide (ZS2): substrate ZS2 100 μM, vs no sp Gluc average
How it was run: (§1)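 Readout: luminescence intensity, as ratio to signal-peptide-free wild-type enzyme. Enzyme 1 μg/mL, substrate 100 μM stock, 10 μL + 90 μL; buffer 50 mM Tris-HCl pH 8.0, 100 mM NaCl, 0.1% Tween-20.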

[2] = Luminescence activity assay of purified Gaussia luciferase mutants on fluoro-coelenterazine; type: biochemical; design: key to Activity of mutant relative to wild-type Gaussia luciferase without the signal peptide: ratio of mutant luminescence intensity to wild-type Gaussia luciferase; conditions: for measured value, f-CTZ: purified combinatorial mutant, substrate fluoro-coelenterazine (f-CTZ); for Activity of mutant relative to wild-type Gaussia luciferase without the signal peptide: Substrate f-CTZ (Table 16); for Measured luminescence intensity (f-CTZ): purified luciferase 1 μg/mL, 10 μL, 90 μL substrate fluoro-coelenterazine 100 μM; for Ratio of luminescence intensities of advantageous mutant to wild-type Gaussia luciferase without signal peptide (f-CTZ): substrate fluoro-coelenterazine 100 μM, vs no sp Gluc average
How it was run: as §1

[3] = Luminescence activity assay of purified Gaussia luciferase mutants on coelenterazine; type: biochemical; design: key to Activity of mutant relative to wild-type Gaussia luciferase without the signal peptide: ratio of mutant luminescence intensity to wild-type Gaussia luciferase; conditions: for measured value, CTZ: purified combinatorial mutant, substrate coelenterazine (CTZ); for Activity of mutant relative to wild-type Gaussia luciferase without the signal peptide: Substrate CTZ (Table 16); for Measured luminescence intensity (CTZ): purified luciferase 1 μg/mL, 10 μL, 90 μL substrate coelenterazine 100 μM; for Ratio of luminescence intensities of advantageous mutant to wild-type Gaussia luciferase without signal peptide (CTZ): substrate coelenterazine 100 μM, vs no sp Gluc average
How it was run: as §1

[4] = Substrate specificity test of combinatorial mutants: activity on coelenterazine derivative ZS26; type: biochemical; conditions: for measured value, ZS-26: purified combinatorial mutant, substrate coelenterazine derivative ZS26; for ratio of catalytic activities, ZS2/ZS26 / ratio of catalytic activities, CTZ/ZS26 / ratio of catalytic activities, f-CTZ/ZS26: substrate specificity; for ratio of catalytic activities, ZS2/ZS26: ZS2 relative to ZS26; for ratio of catalytic activities, CTZ/ZS26: coelenterazine relative to ZS26; for ratio of catalytic activities, f-CTZ/ZS26: fluoro-coelenterazine relative to ZS26
Method: In this Example, the protein concentration was determined with a BCA quantitative kit (Thermo Scientific™ Pierce™ BCA Protein Assay Kit) accurately. The purified luciferase obtained in Example 5 was diluted with diluent (50 mM Tris-HCl, pH 8.0, 100 mM NaCl, 0.1% (v/v) Tween-20) to 1 μg/mL. The diluted luciferase, taken for 10 μL, was moved into a black 96-well plate, then added with 90 μL of the substrates coelenterazine, fluoro-coelenterazine or coelenterazine derivative ZS2 (purchased from Biolab) which was diluted into 100 μM with the same diluent, and the luminescence intensity of the plate was read with a self-luminescence module of a microplate reader. The mutation site of the mutant, the measured luminescence intensity, the ratio of luminescence intensities of the advantageous mutants to the wild-type Gaussia luciferase without the signal peptide having the sequence shown in SEQ ID NO: 3 are shown in Table 15. The results of catalytic activity assay of the advantageous mutants relative to the wild-type Gaussia luciferase without the signal peptide having the sequence shown in SEQ ID NO: 3 on substrate coelenterazine are shown in FIG. 6. […] The results of catalytic activity assay of the advantageous mutants relative to the wild-type Gaussia luciferase without the signal peptide having the sequence shown in SEQ ID NO: 3 on substrate fluoro-coelenterazine are shown in FIG. 7.
The new mutant library constructed in Example 7 was screened and tested for substrate specificity. Expression and purification schemes were the same as that in Example 5, and the activity assay scheme was the same as that in Example 6. The respective catalytic activities of combinatorial mutants on coelenterazine, fluoro-coelenterazine or coelenterazine derivative ZS2, and coelenterazine derivative ZS26 (purchased from BIOLAB) were assayed, and comparisons among the substrate specificities of the combinatorial mutants were based on the ratios of catalytic activities on two corresponding substrates.

[5] = Activity assay of Gaussia luciferase at bacteria solution level (substrate CTZ); type: cell-based; conditions: OrigamiB (DE3) competent cells; 100 μL induced bacteria solution; CTZ final 100 μM; FIG. 4
Method: The expression plasmids pET28a-Gluc wt and pCold-no sp Glue obtained in Example 1 were individually transformed into BL21 (DE3) competent cells or OrigamiB (DE3) chemically competent cells (WEIDI BIO, EC1020S) and applied to plate medium. Then single colonies were picked from the plate for culture overnight at 37° C. The cultured clones were diluted at the ratio of 1:100 the next day, and transferred into 3 mL of fresh LB medium with ampicillin at 100 μg/mL, shaked at 37° C., 200 rpm until OD600≈0.5-0.6, followed by cooling on ice for 1 hour. IPTG was added at a final concentration of 1 mM as inducer for induction overnight at 16° C.
The induced bacteria solution, taken for 100 μL, was moved into a black 96-well plate, then added with 100 μL of a substrate CTZ (purchased from BIOLAB) at a final concentration of 100 μM. The luminescence intensity was read with a self-luminescence module of a microplate reader. […] Accordingly, the subsequent experiments were conducted with the Gaussia luciferase without the signal peptide.

B1: mutant E1-G12: Gaussia luciferase combinatorial mutant encoded by SEQ ID NO: 42 (protein)
chain: MKPTENNEDLNILDIAKNFIETDLDADRGKLPGKKLPLEVLKEMEANARIAGCTRGCLICLSKIKCTLKMKKFIPGRCHTYEGDKSTGQGGIGPAIVDIPEIPGFKDMEPMEQFIAQVDLCEDCTTGCLKGLANVQCSDLLKKWLPQRCATFASKIQGQVDKIKGAGGD
[1]
  measured value, ZS-2: 401271
  ratios of catalytic activities on ZS2 relative to ZS26: significantly improved
[2]
  measured value, f-CTZ: 94900
[3]
  measured value, CTZ: 689624
[4]
  measured value, ZS-26: 31521
  ratio of catalytic activities, ZS2/ZS26: 12.73
  ratio of catalytic activities, CTZ/ZS26: 21.87
  ratio of catalytic activities, f-CTZ/ZS26: 3.01

B2: mutant 4-C12: Gaussia luciferase combinatorial mutant encoded by SEQ ID NO: 43 (protein)
chain: MKPTENNEDFNIVAVASNFATTDLDADRGKLPGKKLPLEVLKEMEANARKAGCTRGCLICLSKIKCTPKMKKFIPGRCHTYEGDKSTGQGGIGPAIVDIPEIPGFKDMEPMEQFIAQVDLCEDCTTGCLKGLANVQCSDLLKKWLPQRCATFASKIQGQVDKIKGAGGD
[1]
  measured value, ZS-2: 773694
  ratios of catalytic activities on ZS2 relative to ZS26: significantly improved
[2]
  measured value, f-CTZ: 167522
[3]
  measured value, CTZ: 1675889
[4]
  measured value, ZS-26: 64057
  ratio of catalytic activities, ZS2/ZS26: 12.08
  ratio of catalytic activities, CTZ/ZS26: 26.16
  ratio of catalytic activities, f-CTZ/ZS26: 2.62

B3: F26L V29A V31I A32D S33R A36N T37E LA0P: Gaussia luciferase mutant (protein)
chain: MGVKVLFALICIAVAEAKPTENNEDLNIAAIDRNFNETDLDADRGKLPGKKLPLEVLKEMEANARKAGCTRGCLICLSHIKCTPKMKKFIPGRCHTYEGDKESAQGGIGEAIVDIPEIPGFKDLEPMEQFIAQVDLCVDCTTGCLKGLANVQCSDLLKKWLPQRCATFASKIQGQVDKIKGAGGD
[1]
  Activity of mutant relative to wild-type Gaussia luciferase without the signal peptide: 0.385
[2]
  Activity of mutant relative to wild-type Gaussia luciferase without the signal peptide: 0.402
[3]
  Activity of mutant relative to wild-type Gaussia luciferase without the signal peptide: 0.406

B4: F26N V29S A30D S33D A36T T37A L40G: Gaussia luciferase mutant (protein)
chain: MGVKVLFALICIAVAEAKPTENNEDNNISDVADNFTATDGDADRGKLPGKKLPLEVLKEMEANARKAGCTRGCLICLSHIKCTPKMKKFIPGRCHTYEGDKESAQGGIGEAIVDIPEIPGFKDLEPMEQFIAQVDLCVDCTTGCLKGLANVQCSDLLKKWLPQRCATFASKIQGQVDKIKGAGGD
modifications: SIGNAL (1)..(17)
notes: Gaussia luciferase mutant
[1]
  Activity of mutant relative to wild-type Gaussia luciferase without the signal peptide: 0.106
[2]
  Activity of mutant relative to wild-type Gaussia luciferase without the signal peptide: 0.121
[3]
  Activity of mutant relative to wild-type Gaussia luciferase without the signal peptide: 0.098

B5: no sp Gluc: wild type Gaussia luciferase without signal peptide, having a sequence shown in SEQ ID NO: 3 (protein)
chain: KPTENNEDFNIVAVASNFATTDLDADRGKLPGKKLPLEVLKEMEANARKAGCTRGCLICLSHIKCTPKMKKFIPGRCHTYEGDKESAQGGIGEAIVDIPEIPGFKDLEPMEQFIAQVDLCVDCTTGCLKGLANVQCSDLLKKWLPQRCATFASKIQGQVDKIKGAGGD
[5]
  luminescence value at bacteria solution level: highest luminescence value
[1]
  Measured luminescence intensity (ZS2): 18344 and 20707 and 22415
  Ratio of luminescence intensities of advantageous mutant to wild-type Gaussia luciferase without signal peptide (ZS2): 0.9 and 1.01 and 1.09
[1]; listed as no sp Gluc average
  Measured luminescence intensity (ZS2): 20488.67
  Ratio of luminescence intensities of advantageous mutant to wild-type Gaussia luciferase without signal peptide (ZS2): 1
[2]
  Measured luminescence intensity (f-CTZ): 5662 and 7198 and 6191
  Ratio of luminescence intensities of advantageous mutant to wild-type Gaussia luciferase without signal peptide (f-CTZ): 0.89 and 1.13 and 0.97
[2]; listed as no sp Gluc average
  Measured luminescence intensity (f-CTZ): 6350.333
  Ratio of luminescence intensities of advantageous mutant to wild-type Gaussia luciferase without signal peptide (f-CTZ): 1
[3]
  Measured luminescence intensity (CTZ): 253597 and 276603 and 266322
  Ratio of luminescence intensities of advantageous mutant to wild-type Gaussia luciferase without signal peptide (CTZ): 0.96 and 1.04 and 1
[3]; listed as no sp Gluc average
  Measured luminescence intensity (CTZ): 265507.3
  Ratio of luminescence intensities of advantageous mutant to wild-type Gaussia luciferase without signal peptide (CTZ): 1
